Reference: the supplement of paper PMC10567573

B1: ZNF263 (parent)
chain: QRTHTGEKPYKCPECGEIFAHSSN

Variants of: B1
Experiment: protein stability index of a GFP-peptide fusion (GPS, HEK-293T) (PSI 1-6); higher = more stable
Settings: c terminus: a fixed tail appended
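Further: lentivirally expressed fusions sorted by FACS into six bins by GFP to DsRed ratio, PSI derived from sequencing read proportions per bin multiplied by bin number.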

| Variant | protein stability index |
| --- | --- |
| QRTHTGEKPYKCPECGEIFAHSSY | 2.96 |
| QRTHTGEKPYKCPECGEIFAHSSQ | 3.65 |
| QRTCTGEKPYKCPECGEIFAHSSN | 3.29 |
| QRTVTGEKPYKCPECGEIFAHSSN | 2.85 |
| QRTMTGEKPYKCPECGEIFAHSSN | 3.44 |
| QRTETGEKPYKCPECGEIFAHSSN | 3.02 |
| QRTTTGEKPYKCPECGEIFAHSSN | 3.02 |
| QRTFTGEKPYKCPECGEIFAHSSN | 3.37 |
| QRTNTGEKPYKCPECGEIFAHSSN | 3.28 |
| QRTATGEKPYKCPECGEIFAHSSN | 2.92 |
| QRTQTGEKPYKCPECGEIFAHSSN | 3.52 |
| QRTWTGEKPYKCPECGEIFAHSSN | 3.08 |
| QRTYTGEKPYKCPECGEIFAHSSN | 2.77 |
| QRTHTGEKPYKCPECGEEFAHSSN | 3.99 |
| QRTHTGEKPYKCPECGEQFAHSSN | 3.91 |
| QRTHTGEKPYKCPECGEVFAHSSN | 3.56 |
| QRTHTGEKPYKCPECGEAFAHSSN | 3.48 |
| QRTHTGEKPYKCPECGEHFAHSSN | 3.29 |
| QRTHTGEKPYKCPECGESFAHSSN | 2.53 |
| QRTHTGEKPYKCPECGENFAHSSN | 3.79 |
| QRTHTGEKPYKCPECGEMFAHSSN | 3.73 |
| QRTHTGEKPYKCPECGEFFAHSSN | 2.97 |
| QRTHTGEKPYKCPECGEIFAHWSN | 3.31 |
| QRTHTGEKPYKCPECGEIFAHGSN | 2.92 |

| Variant | protein stability index |
| --- | --- |
| QRTHTGEKPYKCPECGEIFAHCSN | 4.15 |
| QRTHTGEKPYKCPECGEIFAHDSN | 3.64 |
| QRTHTGEKPYKCPECGEIFAHFSN | 2.8 |
| QRTHTGEKPYKCPECGEIFAHMSN | 2.49 |
| QRTHTGEKPYKCPECGEIFAHESN | 3.62 |
| QRTHTGEKPYKCPECGEIFAHTSN | 2.92 |
| QRDHTGEKPYKCPECGEIFAHSSN | 3.5 |
| QRQHTGEKPYKCPECGEIFAHSSN | 2.86 |
| QRYHTGEKPYKCPECGEIFAHSSN | 2.58 |
| QRKHTGEKPYKCPECGEIFAHSSN | 3.28 |
| QRIHTGEKPYKCPECGEIFAHSSN | 2.93 |
| QRTHTGEKPYKCPECQEIFAHSSN | 3.23 |
| QRTHTGEKPYKCPECMEIFAHSSN | 3.45 |
| QRTHTGEKPYKCPECEEIFAHSSN | 4 |
| QRTHTGEKPYKCPECSEIFAHSSN | 3.14 |
| QRTHTGEKPYKCPECDEIFAHSSN | 3.9 |
| QRTHTGEKPYKCPECCEIFAHSSN | 2.84 |
| QRTHTGEKPYKCPECYEIFAHSSN | 3.18 |
| QRTHTGEKPYKCPECLEIFAHSSN | 3.22 |
| QRTHTGEKPYKCPECAEIFAHSSN | 3.54 |
| QRTHTGEKPYKCPECPEIFAHSSN | 4.06 |
| QRTHTGEIPYKCPECGEIFAHSSN | 2.66 |
| QRTHTGEWPYKCPECGEIFAHSSN | 3.3 |
| QRTHTGEMPYKCPECGEIFAHSSN | 3.4 |

| Variant | protein stability index |
| --- | --- |
| QRTHTIEKPYKCPECGEIFAHSSN | 2.98 |
| QRTHTMEKPYKCPECGEIFAHSSN | 3.04 |
| QRTHTTEKPYKCPECGEIFAHSSN | 3.34 |
| QRTHTNEKPYKCPECGEIFAHSSN | 2.85 |
| QRTHTWEKPYKCPECGEIFAHSSN | 2.74 |
| QRTHTFEKPYKCPECGEIFAHSSN | 2.79 |
| QRTHTCEKPYKCPECGEIFAHSSN | 4.26 |
| QRTHTSEKPYKCPECGEIFAHSSN | 3.38 |
| QRTHTYEKPYKCPECGEIFAHSSN | 2.64 |
| QRTHTGMKPYKCPECGEIFAHSSN | 3.4 |
| QRTHTGKKPYKCPECGEIFAHSSN | 3.29 |
| QRTHTGGKPYKCPECGEIFAHSSN | 3 |
| QRTHTGVKPYKCPECGEIFAHSSN | 2.35 |
| QRTHTGDKPYKCPECGEIFAHSSN | 3.08 |
| QRTHTGNKPYKCPECGEIFAHSSN | 2.72 |
| QRTHTGEKPCKCPECGEIFAHSSN | 4.75 |
| QRTHTGEKPLKCPECGEIFAHSSN | 3.55 |
| QRTHTGEKPWKCPECGEIFAHSSN | 3.46 |
| QRTHTGEKPGKCPECGEIFAHSSN | 3.48 |
| QRTHTGEKPDKCPECGEIFAHSSN | 4.31 |
| QRTHTGEKPKKCPECGEIFAHSSN | 3.93 |
| QRTHTGEKPIKCPECGEIFAHSSN | 3.59 |
| QRTHTGEKPPKCPECGEIFAHSSN | 4.31 |
| QRTHTGEKPQKCPECGEIFAHSSN | 3.5 |

| Variant | protein stability index |
| --- | --- |
| QRTHTGEKPVKCPECGEIFAHSSN | 3.93 |
| QRTHTGEKPYKCPECGEIFADSSN | 2.5 |
| QRTHTGEKPYKCPECGEIFASSSN | 3.43 |
| QRTHTGEKPYKCPECGEIFAFSSN | 2.74 |
| QRTHTGEKPYKCPECGEIFAGSSN | 3.22 |
| QRTHTGEKPYKCPECGEIFAMSSN | 3.19 |
| QRTHTGEKPYKCPECGEIFAISSN | 2.05 |
| QRTHTGEKPYKCTECGEIFAHSSN | 3.34 |
| QRTHTGEKPYKCEECGEIFAHSSN | 4.69 |
| QRTHTGEKPYKCLECGEIFAHSSN | 3.56 |
| QRTHTGEKPYKCVECGEIFAHSSN | 3.48 |
| QRTHTGEKPYKCDECGEIFAHSSN | 4.34 |
| QRTHTGEKPYKCIECGEIFAHSSN | 3.57 |
| QRTHTGEKPYKCKECGEIFAHSSN | 3.59 |
| QRTHTGEKPYKCAECGEIFAHSSN | 3.78 |
| KRTHTGEKPYKCPECGEIFAHSSN | 2.72 |
| RRTHTGEKPYKCPECGEIFAHSSN | 2.97 |
| TRTHTGEKPYKCPECGEIFAHSSN | 2.82 |
| HRTHTGEKPYKCPECGEIFAHSSN | 3.6 |
| ERTHTGEKPYKCPECGEIFAHSSN | 3.46 |
| MRTHTGEKPYKCPECGEIFAHSSN | 2.71 |
| SRTHTGEKPYKCPECGEIFAHSSN | 3.14 |
